Source: US7629132B2, “Goodpasture antigen binding protein” (priority 1999, dated 2009)

Columns and labels:
rGPBP = biological target: T1, rGPBP (Homo sapiens, UniProt Q9Y5P4); test: In vitro phosphorylation of GP antigen-derived peptides by rGPBP; assay type: biochemical; details: about 200 ng yeast rGPBP, 10 nmoles peptide, γ-32P-ATP
T1 construct: made in house; host or cells: Pichia pastoris GS115
T1 sequence (Q9Y5P4 1-624): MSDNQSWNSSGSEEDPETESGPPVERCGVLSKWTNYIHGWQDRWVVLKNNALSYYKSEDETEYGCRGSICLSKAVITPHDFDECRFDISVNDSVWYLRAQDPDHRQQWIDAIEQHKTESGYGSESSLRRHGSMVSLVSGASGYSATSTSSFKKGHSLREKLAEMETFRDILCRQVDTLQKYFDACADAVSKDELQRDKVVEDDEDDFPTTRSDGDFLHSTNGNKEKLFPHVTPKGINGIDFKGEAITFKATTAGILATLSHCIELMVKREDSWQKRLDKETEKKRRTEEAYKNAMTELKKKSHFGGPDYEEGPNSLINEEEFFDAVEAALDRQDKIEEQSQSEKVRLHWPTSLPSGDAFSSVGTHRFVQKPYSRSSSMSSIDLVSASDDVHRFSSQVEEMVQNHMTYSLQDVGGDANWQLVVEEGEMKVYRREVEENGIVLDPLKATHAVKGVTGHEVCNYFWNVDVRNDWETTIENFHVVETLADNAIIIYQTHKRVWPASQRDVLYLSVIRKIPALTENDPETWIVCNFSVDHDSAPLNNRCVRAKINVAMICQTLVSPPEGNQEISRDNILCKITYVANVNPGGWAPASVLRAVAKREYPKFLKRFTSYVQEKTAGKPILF
Protocol: FIG. 5. Recombinant GPBP contains a serine/threonine kinase that specifically phosphorylates the N-terminal region of the human GP antigen. To assess phosphorylation, approximately 200 ng of yeast rGPBP was incubated with [γ]^32P-ATP in the absence (A and B) or presence of GP antigen-derived material (C). In (A), the mixture was subjected to reducing SDS-PAGE (10% gel) and autoradiographed. In (B), the mixture was subjected to ^32P-phosphoamino acid analysis by two-dimensional thin-layer chromatography. The dotted circles indicate the position of ninhydrin stained phosphoamino acids. In (C), the phosphorylation mixtures of the indicated GP-derived material were analyzed by SDS-PAGE (15% gel) and autoradiography (GPpep1 and GPpep1Ala^9) or immunoprecipitated with Mab 17, a monoclonal antibody that specifically recognize GP antigen from human and bovine origin, and analyzed by SDS-PAGE (12.5%) and autoradiography (rGP, GP). The relative positions of rGPBP (A), rGP antigen and the native human and bovine GP antigens (C) are indicated by arrows. The numbers and bars refer to molecular weight markers as in previous Figures. […]

[1] = Loss of PKA-inducing activity of the peptide on storage; assay type: physicochemical; details: long storage at low temperatures
GPBP = biological target: T2, GPBP (Homo sapiens, UniProt Q9Y5P4); test: In vitro GPBP autophosphorylation in the presence of GPΔIII-derived peptide; assay type: biochemical; details: about 200 ng rGPBP, 150 μM ATP, 5 nmol peptide
T2 construct: made in house; host or cells: Pichia pastoris GS115
T2 sequence (Q9Y5P4 1-624): T1 sequence (Q9Y5P4 1-624)
Protocol: FIG. 20. Regulation of the GPBP by the C terminal region of GPΔIII. About 200 ng of rGPBP were in vitro phosphorylated with 150 μM ATP in the absence (lane 1) or in the presence of 5 nmol of GPΔIII-derived peptide synthesized either using Boc-(lane 2) or Fmoc-(lane 3) chemistry. The reaction mixtures were subjected to SDS-PAGE, transferred to PVDF and autoradiographed to asses autophosphorylation, and subsequently blotted with anti-FLAG monoclonal antibodies (Sigma) to determine the amount of recombinant material present (Western).
In vitro phosphorylation assays-About 200 ng of rGPBP were incubated overnight at 30° C. in 25 mM β-glycerolphosphate (pH 7.0), 0.5 mM EDTA, 0.5 mM EGTA, 8 mM MgCl2, 5 mM MnCl2, 1 mM DTT and 0.132 μM γ-^32P-ATP, in the presence or absence of 0.5-1 μg of protein substrates or 10 nmoles of synthetic peptides, in a total volume of 50 μl.
(§1) Phosphorylation studies. Phosphorylation studies were essentially done as described above (see also 3 and 12). In some experiments, the substrates were in-blot renatured and then, phosphorylated for 30 min at room temperature by overlaying 100 μl of phosphorylation buffer containing 0.5 μg of rGPBP. Digestion with V8 endopeptidase and immunoprecipitation were performed as described in (3).

PKA = PKA (Homo sapiens, UniProt P17612); test: PKA phosphorylation of native GP antigen (α3(IV)NC1 domain or hexamer) in the presence of C-terminal peptides; assay type: biochemical; details: 0.1 μM ATP, 10 nmol peptide, purified α3(IV)NC1 domain or hexamer
Protocol: FIG. 16. Phosphorylation of GP alternative splicing products by PKA. In left panel, equimolecular amounts of rGP (lanes 1), rGPΔV (lanes 2), rGPΔIII (lanes 3) or rGPΔIII/IV/V (lanes 4), equivalent to 500 ng of the GP were phosphorylated at the indicated ATP concentrations. One-fifth of the total phosphorylation reaction mixture was separated by gel electrophoresis and transferred to PVDF, autoradiographed (shown) and the proteins blotted with M3/1, a specific monoclonal antibody recognizing all four species (shown) or using antibodies specific for each individual C-terminal region (not shown). […] Right panel: purified α3(IV)NC1 domain or hexamer was phosphorylated with PKA and 0.1 μM ATP in the absence (lanes 1) or in the presence of 10 nmol of peptides representing the C-terminal region of either GPΔIII (lanes 2) or GPΔIII/IV/V (lanes 3). Where indicated the phosphorylation mixtures of purified α3(IV)NC1 domain were V8 digested and immunoprecipitated with antibodies specific for the N terminus of the human α3(IV)NC1 domain (3). Bars and numbers indicate the position and sizes (kDa) of the molecular weight markers.
as §1

KGKRGDAGSPATWTTRGFVFT [GPpep1Ala^9, mutant Ser9 to Ala9 of GPpep1, residues 3-23 of the human GP antigen]
32P incorporation by rGPBP, compared with GPpep1 (rGPBP): lower ^32P incorporation

QRAHGQDLDALFVKVLRSP [Boc-based peptide]
stability of biological activity (ability to induce PKA) on storage [1]: loses its ability to induce PKA upon long storage at low temperatures | effect on GPBP autophosphorylation (GPBP; listed as Boc-based synthetic peptides): positively influenced GPBP autophosphorylation

QRAHGQDLDALFVKVLRSP [Fmoc-based peptide]
effect on GPBP autophosphorylation (GPBP): inhibited GPBP autophosphorylation | induction of GP antigen phosphorylation by PKA (PKA; listed as Fmoc-based peptides): not

QRAHGQDLDALFVKVLRSP [GPΔIII derived peptide, synthetic peptide representing the C-terminal region of GPΔIII, chemistry not specified at the place]
induction of GP antigen phosphorylation by PKA (PKA; listed as SEQ ID NO: 43): induced the phosphorylation of a single polypeptide

QRAHGQDLESLFHQL [GPΔIII/IV/V derived peptide, synthetic peptide representing the C-terminal region of GPΔIII/IV/V]
induction of GP antigen phosphorylation by PKA (PKA): induced the phosphorylation of a single polypeptide
